# Biological target: porcine cytochrome P450 17A1 (CYP17A1), wild type (pig (Sus scrofa)) (UniProt P19100)
# Assay: cell-based or functional assay
# Settings: scale: ratio
# Chain of UniProt P19100 (P19100 whole entry H407L, form in doubt): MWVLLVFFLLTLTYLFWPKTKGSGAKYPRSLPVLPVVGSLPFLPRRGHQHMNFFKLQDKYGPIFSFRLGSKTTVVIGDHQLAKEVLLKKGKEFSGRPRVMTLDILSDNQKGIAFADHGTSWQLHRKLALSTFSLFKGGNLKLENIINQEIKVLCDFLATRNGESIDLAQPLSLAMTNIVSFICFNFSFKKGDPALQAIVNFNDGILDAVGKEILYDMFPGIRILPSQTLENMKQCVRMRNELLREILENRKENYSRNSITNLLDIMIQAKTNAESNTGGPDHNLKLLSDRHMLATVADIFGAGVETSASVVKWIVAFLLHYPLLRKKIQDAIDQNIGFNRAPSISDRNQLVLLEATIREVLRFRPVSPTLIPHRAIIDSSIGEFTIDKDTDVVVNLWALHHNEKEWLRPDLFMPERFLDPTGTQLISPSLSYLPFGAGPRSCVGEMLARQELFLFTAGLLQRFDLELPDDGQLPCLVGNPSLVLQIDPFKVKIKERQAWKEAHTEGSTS
row,"Overall conversion (ratio of activity with b5/activity without b5), pregnenolone metabolism in transfected HEK-293 cells",Substance
1,1.05,porcine cytochrome b5 type A double mutant CYB5A-N21K+L28V (from UniProt P00172 2-134)
2,0.957,porcine cytochrome b5 type A double mutant CYB5A-R52M+N62S (from UniProt P00172 2-134)
3,1.2,porcine cytochrome b5 type A mutant CYB5A-L28V (from UniProt P00172 2-134)
4,1.4,porcine cytochrome b5 type A mutant CYB5A-QM R52M/G57R/N62S/T70S (from UniProt P00172 2-134)
5,1.09,porcine cytochrome b5 type A mutant CYB5A-T70S (from UniProt P00172 2-134)

# The next lines start with the substance.
row,Substance,"Overall conversion (ratio of activity with b5/activity without b5), pregnenolone metabolism in transfected HEK-293 cells"
1,porcine cytochrome b5 type A mutant CYB5A-G57R (from UniProt P00172 2-134),0.865
2,porcine cytochrome b5 type A mutant CYB5A-N21K (from UniProt P00172 2-134),1.36
3,porcine cytochrome b5 type A mutant CYB5A-N62S (from UniProt P00172 2-134),2.16
4,porcine cytochrome b5 type A mutant CYB5A-R52M (from UniProt P00172 2-134),0.765

# Source: US20150106963A1
